{
  "source": "patent US20050191302",
  "proteins": {"B1": {"name": "recombinant human caspase-3 (Calbiochem) (protein)", "chain": "SGISLDNSYKMDYPEMGLCIIINNKNFHKSTGMTSRSGTDVDAANLRETFRNLKYEVRNKNDLTREEIVELMRDVSKEDHSKRSSFVCVLLSHGEEGIIFGTNGPVDLKKITNFFRGDRCRSLTGKPKLFIIQACRGTELDCGIETDSGVDDDMACHKIPVEADFLYAYSTAPGYYSWRNSKDGSWFIQSLCAMLKQYADKLEFMHILTRVNRKVATEFESFSFDATFHAKKQIPCIVSMLTKELYFYH"}},
  "molecular_target": "recombinant TIMP-1 (Biogenesis, Poole, UK)",
  "data": [
    {"protein": "B1", "values": [
      {"measurement": "caspase-3 activity (colorimetric substrate assay; recombinant caspase-3 incubated with TIMP-1 at 285-2850 ng/ml for 1 hour before the substrate was added)", "result": "TIMP-1 did not reduce caspase-3 activity directly (data not shown)"}
    ]}
  ]
}
